Assay results taken from the supplement of paper PMC11246515.
± gives the standard deviation of the averaged measurements.

Assay: total protein half-life in vivo (active degradation + dilution); higher = more stable protein
[1] = E. coli NCM3722 delta-clpP delta-lon delta-hslV, growth: N-lim chemostat, doubling time 6 h
[2] = E. coli NCM3722 delta-hslV, growth: N-lim chemostat, doubling time 6 h
[3] = E. coli NCM3722 delta-lon, growth: N-lim chemostat, doubling time 6 h
[4] = E. coli NCM3722 delta-smpB, growth: N-lim chemostat, doubling time 6 h
[5] = wild type E. coli NCM3722, growth: C-lim chemostat, doubling time 3 h
[6] = wild type E. coli NCM3722, growth: C-lim chemostat, doubling time 6 h
[7] = wild type E. coli NCM3722, growth: C-lim chemostat, doubling time 12 h
[8] = wild type E. coli NCM3722, growth: N-lim chemostat, doubling time 6 h
[9] = wild type E. coli NCM3722, growth: N-lim chemostat, doubling time 12 h
[10] = wild type E. coli NCM3722, growth: P-lim chemostat, doubling time 6 h
[11] = wild type E. coli NCM3722, growth: P-lim chemostat, doubling time 12 h
[12] = E. coli NCM3722 delta-clpP, growth: N-lim chemostat, doubling time 6 h

Sequence | total protein half-life in vivo [1] [h] | total protein half-life in vivo [2] [h] | total protein half-life in vivo [3] [h] | total protein half-life in vivo [4] [h] | total protein half-life in vivo [5] [h] | total protein half-life in vivo [6] [h] | total protein half-life in vivo [7] [h] | total protein half-life in vivo [8] [h] | total protein half-life in vivo [9] [h] | total protein half-life in vivo [10] [h] | total protein half-life in vivo [11] [h] | total protein half-life in vivo [12] [h]
MTTVYTLVSWLAILGYWLLIAGVTLRILMKRRAVPSAMAWLLIIYILPLVGIIAYLAVGELHLGKRRAERARAMWPSTAKWLNDLKACKHIFAEENSSVAAPLFKLCERRQGIAGVKGNQLQLMTESDDVMQALIRDIQLARHNIEMVFYIWQPGGMADQVAESLMAAARRGIHCRLMLDSAGSVAFFRSPWPELMRNAGIEVVEALKVNLMRVFLRRMDLRQHRKMIMIDNYIAYTGSMNMVDPRYFKQDAGVGQWIDLMARMEGPIATAMGIIYSCDWEIETGKRILPPPPDVNIMPFEQASGHTIHTIASGPGFPEDLIHQALLTAAYSAREYLIMTTPYFVPSDDLLHAICTAAQRGVDVSIILPRKNDSMLVGWASRAFFTELLAAGVKIYQFEGGLLHTKSVLVDGELSLVGTVNLDMRSLWLNFEITLAIDDKGFGADLAAVQDDYISRSRLLDARLWLKRPLWQRVAERLFYFFSPLL [P0A6H8] | 6.74 ± 0.71 | 7.06 ± 0.36 | 6.87 ± 0.85 | 6.25 ± 0.099 | 3.38 ± 0.26 | 6.636 ± 0.027 | 13.5 ± 0.82 | 6.16 ± 0.22 | 13.1 ± 1.4 | 6.275 ± 0.026 | 13.1 ± 0.13 | 
MPEGPEIRRAADNLEAAIKGKPLTDVWFAFPQLKPYQSQLIGQHVTHVETRGKALLTHFSNDLTLYSHNQLYGVWRVVDTGEEPQTTRVLRVKLQTADKTILLYSASDIEMLTPEQLTTHPFLQRVGPDVLDPNLTPEVVKERLLSPRFRNRQFAGLLLDQAFLAGLGNYLRVEILWQVGLTGNHKAKDLNAAQLDALAHALLEIPRFSYATRGQVDENKHHGALFRFKVFHRDGEPCERCGSIIEKTTLSSRPFYWCPGCQH | 5.54 ± 0.6 | 6.197 ± 0.018 | 6.19 ± 0.85 | 4.38 ± 0.63 | 2.36 ± 0.55 |  | 9.48 | 5.45 | 11 ± 0.57 |  | 7.33 | 5.55 ± 0.23
MEISWGRALWRNFLGQSPDWYKLALIIFLIVNPLIFLISPFVAGWLLVAEFIFTLAMALKCYPLLPGGLLAIEAVFIGMTSAEHVREEVAANLEVLLLLMFMVAGIYFMKQLLLFIFTRLLLSIRSKMLLSLSFCVAAAFLSAFLDALTVVAVVISVAVGFYGIYHRVASSRTEDTDLQDDSHIDKHYKVVLEQFRGFLRSLMMHAGVGTALGGVMTMVGEPQNLIIAKAAGWHFGDFFLRMSPVTVPVLICGLLTCLLVEKLRWFGYGETLPEKVREVLQQFDDQSRHQRTRQDKIRLIVQAIIGVWLVTALALHLAEVGLIGLSVIILATSLTGVTDEHAIGKAFTESLPFTALLTVFFSVVAVIIDQQLFSPIIQFVLQASEHAQLSLFYIFNGLLSSISDNVFVGTIYINEAKAAMESGAITLKQYELLAVAINTGTNLPSVATPNGQAAFLFLLTSALAPLIRLSYGRMVWMALPYTLVLTLVGLLCVEFTLAPVTEWFMQMGWIATL [P0AFA7] |  | 6.59 ± 0.35 | 6.07 ± 0.93 | 6.4 ± 0.18 |  |  | 13.8 ± 0.64 | 5.91 ± 0.38 | 11.2 ± 4.7 | 6.58 ± 0.48 | 12.8 ± 0.14 | 
MVWLANPERYGQMQYRYCGKSGLRLPALSLGLWHNFGHVNALESQRAILRKAFDLGITHFDLANNYGPPPGSAEENFGRLLREDFAAYRDELIISTKAGYDMWPGPYGSGGSRKYLLASLDQSLKRMGLEYVDIFYSHRVDENTPMEETASALAHAVQSGKALYVGISSYSPERTQKMVELLREWKIPLLIHQPSYNLLNRWVDKSGLLDTLQNNGVGCIAFTPLAQGLLTGKYLNGIPQDSRMHREGNKVRGLTPKMLTEANLNSLRLLNEMAQQRGQSMAQMALSWLLKDDRVTSVLIGASRAEQLEENVQALNNLTFSTKELAQIDQHIADGELNLWQASSDK | 5.44 ± 0.59 | 4.93 ± 0.43 | 5.69 ± 0.77 | 4.18 ± 0.68 | 3.2 ± 0.16 | 6.28 ± 0.24 | 11.4 ± 1.3 | 5.12 ± 0.82 | 8.176 ± 0.024 | 6.24 ± 0.32 | 12.4 ± 1.1 | 5.3 ± 0.24
MGNNLLSAKATLPVYDLNNLAPRIVHLGFGAFHRAHQGVYADILATEHFSDWGYYEVNLIGGEQQIADLQQQDNLYTVAEMSADVWTARVVGVVKKALHVQIDGLETVLAAMCEPQIAIVSLTITEKGYFHSPATGQLMLDHPMVAADVQNPHQPKTATGVIVEALARRKAAGLPAFTVMSCDNMPENGHVMRDVVTSYAQAVDVKLAQWIEDNVTFPSTMVDRIVPAVTEDTLAKIEQLTGVRDPAGVACEPFRQWVIEDNFVAGRPEWEKAGAELVSDVLPYEEMKLRMLNGSHSFLAYLGYLAGYQHINDCMEDEHYRYAAYGLMLQEQAPTLKVQGVDLQDYANRLIARYSNPALRHRTWQIAMDGSQKLPQRMLDSVRWHLAHDSKFDLLALGVAGWMRYVGGVDEQGNPIEISDPLLPVIQKAVQSSAEGKARVQSLLAIKAIFGDDLPDNSLFTARVTETYLSLLAHGAKATVAKYSVK | 5.14 ± 0.34 | 3.4445 ± 0.0012 |  | 2.77 ± 0.18 | 1.95 ± 0.0085 | 4.22 | 6.21 ± 3.1 | 3.63 ± 0.19 | 5.47 ± 0.58 | 3.61 ± 0.7 | 7.36 ± 0.28 | 3.3 ± 0.17
